# Source: US20030044400A1, “Composition and method for treating cells” (priority 2001, published 2003)
# Values joined by “and” are separate entries in the source; they are usually repeats but may differ in a detail not shown here. Equal entries are not always repeated.
# Key:
# [1] = Rabbit Study to Determine the Safety of Fetuin by Intravenous Administration; assay type: in vivo; set-up: Temp Increase / Wt. Gain Mar. 6, 2000 / Wt. Gain April 6, 2000 / Wt. Gain April 19, 2000 / Mean of Wt.Gain / Globulin / Alanine Transferase / Aspartate Transferase / Mean of ALT / Mean of AST: unit not given here; settings: rabbits; for Temp Increase: monitored 3 hours post injection; for Blood Glucose Level / Mean of blood Glucose level: non-fasting; for Wt. Gain: over 7 week period; for Albumin / Globulin: serum
# Experimental: Rabbits weighing 1.75 to 2.5 kg are used in the study, 2 rabbits/group. The control group receives 1 ml of saline. […] All dilutions are made with sterile pyrogen free saline (0.9%). The study is designed to limit to an acceptable level the risk of a febrile reaction in patients. The animals are given their respective doses of Fetuin at two-day interval for a total of three doses if no reaction occurs. Blood samples are collected for a baseline prior to treatment and then 24-36 hours after the third treatment. At the end of the treatment period, blood is drawn to perform hematology to compare with the baseline levels. The body temperature is recorded for three hours post injection to determine if a febrile reaction is produced. The body temperature is monitored prior to injection (30 min) and then at 30 min interval for three hours. Prior to sacrifice, blood is drawn from each animal to determine the serum level of Fetuin. Organs are examined in all animals. The target organs: spleen, lymph nodes, thymus are examined for evidence of increased size. All tissues excised are preserved in 10% formalin for subsequent histopathology if necessary. Observations made at each dose level are tabulated to see if there is any correlation of symptoms and/or mortality and dose level of the test material. Body weights and necropsy results are recorded. Rabbit body temperature increases for each dose level is reported and conclusions made from the study.
# [2] = system: CCD 18 Co (normal colon fibroblast); assay: Fetuin-induced apoptosis, Hoechst staining confirmed by MTS assay; assay type: cell-based, Human
# Experimental: (§1) The purified fetuin was tested on various cancer cell lines. […] The DNA condensation and breakage of nuclei which are the characteristics for apoptosis were observed by staining the cell with Hoechst dye at 0.1 ug/ml.
# (§2) Various concentrations of Zn-charged fetuin prepared as described were incubated with cell lines for 6 hr. Percent of cell under apoptosis was determined by Hoechst staining and confirmed by MTS assay. The concentration of Zn-charged fetuin for the induction of 50% of cells under apoptosis (LD50) was determined. Each data represents the average of three assays.
# Calu-1 cells = assay: as above; assay type: cell-based, Human
# Experimental: as §1, §2
# PC-3 cells = assay: as above; assay type: cell-based, Human
# Experimental: as §1, §2
# MCF-7 cells = assay: as above; assay type: cell-based, Human
# Experimental: as §1, §2
# [3] = system: WI 38 (normal lung fibroblast); assay: as above; assay type: cell-based, Human
# Experimental: as §1, §2
# HL-60 cells = assay: as above; assay type: cell-based, Human
# Experimental: as §1, §2
# [4] = Zn-charged fetuin, 6 hr, average of three assays
# [5] = purified fetuin, Hoechst dye 0.1 ug/ml
substance,measurement,setting,value
"Fetuin: Fetal bovine fetuin purified from fetal bovine serum by modified Spiro method; 60 Kd glycoprotein, homologue of alpha 2-HS glycoprotein",signs of distress during the test,[1],None of the animals displayed any signs of distress
same,"toxicity, conclusion of rabbit study",[1]; iv,no toxicity
same,Alanine Transferase,"[1]; iv, 65.7 mg/kg",54 and 29
same,Albumin/Globulin Ratio,"[1]; iv, 65.7 mg/kg",13.8 and 11.2
same,Aspartate Transferase,"[1]; iv, 65.7 mg/kg",28 and 32
same,Blood Urea Nitrogen,"[1]; iv, 65.7 mg/kg",21 mg/dL and 24 mg/dL
same,Cholesterol,"[1]; iv, 65.7 mg/kg",69 mg/dL and 71 mg/dL
same,Cholesterol Mean,"[1]; iv, 65.7 mg/kg",70 mg/dL
same,Hematocrit,"[1]; iv, 65.7 mg/kg",37.0% and 40.2%
same,Hematocrit % Mean,"[1]; iv, 65.7 mg/kg",38.6%
same,Hemoglobin,"[1]; iv, 65.7 mg/kg",12.6 g/dL and 13.4 g/dL
same,Hemoglobin Mean,"[1]; iv, 65.7 mg/kg",13.0 g/dL
same,Mean of ALT,"[1]; iv, 65.7 mg/kg",41.5
same,Mean of AST,"[1]; iv, 65.7 mg/kg",30
same,Mean of BUN,"[1]; iv, 65.7 mg/kg",22.5 mg/dL
same,Mean of WBC,"[1]; iv, 65.7 mg/kg",8.5 K/ul
same,Mean of Wt.Gain,"[1]; iv, 65.7 mg/kg",1.14
same,Spleen Wt.,"[1]; iv, 65.7 mg/kg",1.72 g and 1.54 g
same,Spleen Wt. Mean,"[1]; iv, 65.7 mg/kg",1.63 g
same,Thymus Wt.,"[1]; iv, 65.7 mg/kg",5.21 g and 6.56 g
same,Thymus Wt. Mean,"[1]; iv, 65.7 mg/kg",5.85 g
same,Ttl Serum Protn,"[1]; iv, 65.7 mg/kg",5.9 g/dL and 6.1 g/dL
same,"WBC, K/ul","[1]; iv, 65.7 mg/kg",6.9 K/ul and 10.1 K/ul
same,"Wt. Gain April 6, 2000","[1]; iv, 65.7 mg/kg",3.15 and 3.28
same,"Wt. Gain April 19, 2000","[1]; iv, 65.7 mg/kg",3.65 and 3.72
same,"Wt. Gain Mar. 6, 2000","[1]; iv, 65.7 mg/kg",2.48 and 2.61
same,Temp Increase,"[1]; iv, 65.7 mg/kg, Apr. 6, 2000",0
same,Temp Increase,"[1]; iv, 65.7 mg/kg, Mar. 6, 2000",0
same,Blood Glucose Level,"[1]; iv, 65.7 mg/kg",94 mg/dL and 88 mg/dL
same,Mean of blood Glucose level,"[1]; iv, 65.7 mg/kg",91 mg/dL
same,Wt. Gain,"[1]; iv, 65.7 mg/kg",1.17 kg and 1.11 kg
same,Albumin,"[1]; iv, 65.7 mg/kg",5.5 and 5.6
same,Globulin,"[1]; iv, 65.7 mg/kg",0.4 and 0.5
same,Alanine Transferase,"[1]; iv, 126 mg/kg",42 and 32
same,Albumin/Globulin Ratio,"[1]; iv, 126 mg/kg",8.8
same,Aspartate Transferase,"[1]; iv, 126 mg/kg",37 and 66
same,Blood Urea Nitrogen,"[1]; iv, 126 mg/kg",20 mg/dL and 17 mg/dL
same,Cholesterol,"[1]; iv, 126 mg/kg",66 mg/dL and 49 mg/dL
same,Cholesterol Mean,"[1]; iv, 126 mg/kg",57.5 mg/dL
same,Hematocrit,"[1]; iv, 126 mg/kg",38.2% and 38.6%
same,Hematocrit % Mean,"[1]; iv, 126 mg/kg",38.4%
same,Hemoglobin,"[1]; iv, 126 mg/kg",12.4 g/dL and 12.9 g/dL
same,Hemoglobin Mean,"[1]; iv, 126 mg/kg",12.6 g/dL
same,Mean of ALT,"[1]; iv, 126 mg/kg",37
same,Mean of AST,"[1]; iv, 126 mg/kg",51.5
same,Mean of BUN,"[1]; iv, 126 mg/kg",18.5 mg/dL
same,Mean of WBC,"[1]; iv, 126 mg/kg",8.1 K/ul
same,Mean of Wt.Gain,"[1]; iv, 126 mg/kg",0.76
same,Spleen Wt.,"[1]; iv, 126 mg/kg",1.37 g and 1.9 g
same,Spleen Wt. Mean,"[1]; iv, 126 mg/kg",1.43 g
same,Thymus Wt.,"[1]; iv, 126 mg/kg",4.90 g and 5.21 g
same,Thymus Wt. Mean,"[1]; iv, 126 mg/kg",5.05 g
same,Ttl Serum Protn,"[1]; iv, 126 mg/kg",5.9 g/dL
same,"WBC, K/ul","[1]; iv, 126 mg/kg",6.7 K/ul and 9.5 K/ul
same,"Wt. Gain April 6, 2000","[1]; iv, 126 mg/kg",3.31 and 3.10
same,"Wt. Gain April 19, 2000","[1]; iv, 126 mg/kg",3.56 and 3.26
same,"Wt. Gain Mar. 6, 2000","[1]; iv, 126 mg/kg",2.60 and 2.70
same,Temp Increase,"[1]; iv, 126 mg/kg, Apr. 6, 2000",0
same,Temp Increase,"[1]; iv, 126 mg/kg, Mar. 6, 2000",0
same,Blood Glucose Level,"[1]; iv, 126 mg/kg",221 mg/dL and 123 mg/dL
same,Mean of blood Glucose level,"[1]; iv, 126 mg/kg",172 mg/dL
same,Wt. Gain,"[1]; iv, 126 mg/kg",0.96 kg and 0.56 kg
same,Albumin,"[1]; iv, 126 mg/kg",5.3
same,Globulin,"[1]; iv, 126 mg/kg",0.6
same,Alanine Transferase,"[1]; iv, 185 mg/kg",49 and 36
same,Albumin/Globulin Ratio,"[1]; iv, 185 mg/kg",5.8 and 10.2
same,Aspartate Transferase,"[1]; iv, 185 mg/kg",26 and 23
same,Blood Urea Nitrogen,"[1]; iv, 185 mg/kg",19 mg/dL and 22 mg/dL
same,Cholesterol,"[1]; iv, 185 mg/kg",35 mg/dL and 56 mg/dL
same,Cholesterol Mean,"[1]; iv, 185 mg/kg",45.5 mg/dL
same,Hematocrit,"[1]; iv, 185 mg/kg",35.2% and 37.3%
same,Hematocrit % Mean,"[1]; iv, 185 mg/kg",36.3%
same,Hemoglobin,"[1]; iv, 185 mg/kg",11.4 g/dL and 12.3 g/dL
same,Hemoglobin Mean,"[1]; iv, 185 mg/kg",11.8 g/dL
same,Mean of ALT,"[1]; iv, 185 mg/kg",42.5
same,Mean of AST,"[1]; iv, 185 mg/kg",24.5
same,Mean of BUN,"[1]; iv, 185 mg/kg",20.5 mg/dL
same,Mean of WBC,"[1]; iv, 185 mg/kg",8.75 K/ul
same,Mean of Wt.Gain,"[1]; iv, 185 mg/kg",1.02
same,Spleen Wt.,"[1]; iv, 185 mg/kg",1.71 g and 1.64 g
same,Spleen Wt. Mean,"[1]; iv, 185 mg/kg",1.67 g
same,Thymus Wt.,"[1]; iv, 185 mg/kg",5.26 g and 5.60 g
same,Thymus Wt. Mean,"[1]; iv, 185 mg/kg",5.43 g
same,Ttl Serum Protn,"[1]; iv, 185 mg/kg",6.1 g/dL and 5.6 g/dL
same,"WBC, K/ul","[1]; iv, 185 mg/kg",10.7 K/ul and 6.8 K/ul
same,"Wt. Gain April 6, 2000","[1]; iv, 185 mg/kg",3.19 and 3.26
same,"Wt. Gain April 19, 2000","[1]; iv, 185 mg/kg",3.69 and 3.77
same,"Wt. Gain Mar. 6, 2000","[1]; iv, 185 mg/kg",2.80 and 2.61
same,Temp Increase,"[1]; iv, 185 mg/kg, Apr. 6, 2000",0
same,Temp Increase,"[1]; iv, 185 mg/kg, Mar. 6, 2000",0
same,Blood Glucose Level,"[1]; iv, 185 mg/kg",117 mg/dL and 89 mg/dL
same,Mean of blood Glucose level,"[1]; iv, 185 mg/kg",103 mg/dL
same,Wt. Gain,"[1]; iv, 185 mg/kg",0.89 kg and 1.16 kg
same,Albumin,"[1]; iv, 185 mg/kg",5.2 and 5.1
same,Globulin,"[1]; iv, 185 mg/kg",0.9 and 0.5
same,rectal temperature change over 3 hr post injection,[1]; any dosages of Fetuin,did not cause body temperature increase
same,LD50 of Fetuin-induced Apoptosis,"[2]; CCD 18 Co, Zn-charged fetuin, 6 hr, average of three assays",>100 µM
same,induction of apoptosis,"[2]; CCD18Co, purified fetuin, Hoechst dye 0.1 ug/ml",did not induce apoptosis
same,LD50 of Fetuin-induced Apoptosis,Calu-1 cells; [4],4 µM
same,induction of apoptosis,Calu-1 cells; [5],strongly induced apoptosis
same,LD50 of Fetuin-induced Apoptosis,PC-3 cells; [4],1 µM
same,induction of apoptosis,PC-3 cells; [5],strongly induced apoptosis
same,LD50 of Fetuin-induced Apoptosis,MCF-7 cells; [4],8 µM
same,induction of apoptosis,MCF-7 cells; [5],strongly induced apoptosis
same,LD50 of Fetuin-induced Apoptosis,"[3]; WI 38, Zn-charged fetuin, 6 hr, average of three assays",>100 µM
same,induction of apoptosis,"[3]; WI-38, purified fetuin, Hoechst dye 0.1 ug/ml",did not induce apoptosis
same,LD50 of Fetuin-induced Apoptosis,"HL-60 cells; HL-60, Zn-charged fetuin, 6 hr, average of three assays",5 µM
same,induction of apoptosis,"HL-60 cells; HL-60, purified fetuin, Hoechst dye 0.1 ug/ml",strongly induced apoptosis
same,apoptosis of HL-60 cells,HL-60 cells; at 1 uM,induce apoptosis
